Test results from publication PMC2954210, “Structure of an essential bacterial protein YeaZ (TM0874) from Thermotoga maritima at 2.5 Å resolution” (Acta Crystallographica Section F: Structural Biology and …, 2009).

Biological target: the molecule itself
Assay: SEC-MALS; Superdex 200 column coupled with miniDAWN static light-scattering and Optilab refractive-index detectors; 20 mM Tris-HCl pH 7.9, 150 mM NaCl, 0.02% sodium azide

B1: YeaZ (TM0874) from Thermotoga maritima (natural protein, UniProt Q9WZX7 1-206, looked up)
chain: MNVLALDTSQRIRIGLRKGEDLFEISYTGEKKHAEILPVVVKKLLDELDLKVKDLDVVGVGIGPGGLTGLRVGIATVVGLVSPYDIPVAPLNSFEMTAKSCPADGVVLVARRARKGYHYCAVYLKDKGLNPLKEPSVVSDEELEEITKEFSPKIVLKDDLLISPAVLVEESERLFREKKTIHYYEIEPLYLQKSIAELNWEKKKRG
modifications: selenomethionine derivative
notes: YeaZ (TM0874), Thermotoga maritima, full-length protein, residues 1-206; Swiss-Prot Q9WZX7; Cloned into plasmid pMH4; In the crystal model residues 1-193 (chain A) and 0-187 (chain B) are ordered; residue 0 is the last residue of the His tag; also called TmYeaZ; His-tagged SeMet-TmYeaZ; source: E. coli GeneHogs, selenomethionine-containing medium, purified (nickel-chelating resin, Resource Q)
  stoichiometry N: 2
